Results taken from patent US10005846.
pEC50: −log10 of the molar value.

What was measured:
[1] = target: human transglutaminase type 2 (TG2) (human) (UniProt P21980)
[2] = target: cynomolgus monkey TG2 (cynomolgus monkey)
[3] = target: human transglutaminase type 2 (TG2) (human) (UniProt P21980); assay: ELISA on immobilised human TG2; r2 0.9991; EC50 95% confidence range 0.3291 to 0.4396 [panel A]
[4] = target: human transglutaminase type 2 (TG2) (human) (UniProt P21980); assay: ELISA on immobilised human TG2; r2 0.9588; EC50 95% confidence range 0.06801 to 0.2396 [panel A]
[5] = target: cynomolgus monkey TG2 (cynomolgus monkey); assay: ELISA on immobilised cynomolgus monkey TG2; r2 0.9994; EC50 95% confidence range 0.3762 to 0.4603 [panel A]
[6] = target: cynomolgus monkey TG2 (cynomolgus monkey); assay: ELISA on immobilised cynomolgus monkey TG2; r2 0.9586; EC50 95% confidence range 0.09303 to 0.4223 [panel A]

Chain of human transglutaminase type 2 (TG2) (human) (P21980 whole entry): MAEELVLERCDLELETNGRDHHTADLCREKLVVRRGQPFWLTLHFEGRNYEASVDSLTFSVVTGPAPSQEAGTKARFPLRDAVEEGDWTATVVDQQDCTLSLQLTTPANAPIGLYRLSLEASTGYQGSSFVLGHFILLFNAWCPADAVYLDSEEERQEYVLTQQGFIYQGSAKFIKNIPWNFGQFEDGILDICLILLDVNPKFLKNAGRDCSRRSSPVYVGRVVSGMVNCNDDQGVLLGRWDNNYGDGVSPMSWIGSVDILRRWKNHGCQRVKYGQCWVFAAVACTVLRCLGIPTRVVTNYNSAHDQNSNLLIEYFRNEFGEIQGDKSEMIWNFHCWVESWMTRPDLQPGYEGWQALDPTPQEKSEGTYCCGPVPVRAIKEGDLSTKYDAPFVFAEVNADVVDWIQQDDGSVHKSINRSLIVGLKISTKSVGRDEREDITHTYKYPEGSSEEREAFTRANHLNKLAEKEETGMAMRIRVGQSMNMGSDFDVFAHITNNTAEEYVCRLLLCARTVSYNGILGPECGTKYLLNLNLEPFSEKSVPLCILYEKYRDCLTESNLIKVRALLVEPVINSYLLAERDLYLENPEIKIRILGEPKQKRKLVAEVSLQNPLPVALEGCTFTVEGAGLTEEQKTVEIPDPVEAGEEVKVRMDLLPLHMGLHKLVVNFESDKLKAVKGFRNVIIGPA
Chain of cynomolgus monkey TG2 (cynomolgus monkey) (chain, as listed by the source): as the sequence (P21980 whole entry) above, with E4D, Q157R, N177S, H413S, I421T, Y528H, V542I counted along it

IC50 of enzymatic inhibition, dansylated lysine incorporation into N,N-dimethylated casein [continued), panel F] [1]: > 100000 pM | IC50 of enzymatic inhibition, dansylated lysine incorporation into N,N-dimethylated casein [panel B] [2]: > 100000 pM | pEC50 [3]: 9.42 | pEC50 [4]: 9.89 | pEC50 [5]: 9.38 | pEC50 [6]: 9.70
Substance: CUB7402 commercial anti-TG2 antibody
